For series [1], the system named is glyphosate-resistant Amaranthus palmeri plants (“R-22”). The series is described as follows: Sensitization of glyphosate-resistant Palmer amaranth to glyphosate by topical dsRNA trigger, then WEATHERMAX glyphosate. Format: in vivo. As to conditions: glyphosate 1.5 lb/ac one day after, four replications. The protocol: Double stranded RNA (dsRNA) triggers comprising polynucleotide sequences of SEQ ID NOs: 3 and 4, SEQ ID NOs: 5 and 6, and SEQ ID NOs: 7 and 8 were produced and the triggers were formulated with 0.5% SILWET® L-77, 2% AMS, and 20 mM phosphate buffer to the desired concentration. The trigger formulations were then topically applied to the leaves of glyphosate-resistant Amaranthus palmeri plants (“R-22”). Control plants were either untreated or treated with the 0.5% SILWET® L-77, 2% AMS, and 20 mM phosphate buffer solution. One day after treatment, WEATHERMAX® brand glyphosate herbicide (RU Wmax, Monsanto, St Louis, Mo.) was applied to the plants at 1.5 lb/ac. 11 days after treatment (DAT) with EPSPS trigger polynucleotides the percent growth reduction of the dsRNA treated plants was assessed relative to untreated control plants by visual score. At 14 DAT the fresh weight of the dsRNA treated and control plants were determined. Four replications were performed per treatment. […] See also FIG. 1.

For series [2], the system named is glyphosate-resistant Waterhemp (Amaranthus rudis). The series is described as follows: Sensitization of glyphosate-resistant Waterhemp to glyphosate by topical dsRNA trigger (Example 3). Format: in vivo. As to conditions: 8 nmol trigger; glyphosate 1.5 lb/ac one day after; 14 DAT; compared to plants treated with glyphosate alone. How it is done:
The efficacies of mid-sized polynucleotide trigger molecules comprising SEQ ID NOs: 3 and 4 or SEQ ID NOs: 5 and 6, were assessed in glyphosate-resistant Waterhemp (Amaranthus rudis) in relation to a 24-mer trigger comprising SEQ ID NOs: 7 and 8. dsRNA triggers comprising polynucleotide sequences of SEQ ID NOs: 3 and 4, SEQ ID NOs: 5 and 6, and SEQ ID NOs: 7 and 8 were produced and the triggers were each formulated with 0.5% SILWET® L-77, 2% AMS, and 20 mM phosphate buffer to a concentration of 8 nmol. The trigger formulations were then topically applied to the leaves of glyphosate-resistant Waterhemp. Control plants were either untreated or treated with a solution of 0.5% SILWET® L-77, 2% AMS, and 20 mM phosphate buffer. One day after treatment with the trigger formulation, WEATHERMAX® brand glyphosate herbicide was applied to the plants at 1.5 lb/ac. Four replications were performed per treatment. The fresh weight of the plants was determined 14 DAT with EPSPS trigger polynucleotides and the fresh weight % compared to control plants (treated with WEATHERMAX® brand glyphosate herbicide alone) was calculated.

Series [3] has as its system glyphosate-resistant Amaranthus palmeri plants (“R-22”). As to conditions: stated as known; cited from earlier work.
Series [4] has as its system glyphosate-resistant Waterhemp plants (“WH13”). The note with it: stated as known; cited from earlier work.
For the next series, the system named is EPSPS mRNA. Briefly: EPSPS mRNA reduction in Palmer protoplasts. It is filed as cell-based. As to conditions: 6 ug dose of dsRNA trigger; Amaranthus palmeri protoplasts; FIG. 2. The protocol:
The activities of mid-sized bioactive polynucleotide trigger molecules corresponding to SEQ ID NOs: 3 and 4 or SEQ ID NOs: 5 and 6 were assessed in Amaranthus palmeri protoplasts. A 6 ug dose of each dsRNA trigger (SEQ ID NO 3/4 or SEQ ID NO 5/6) was added to Amaranthus palmeri protoplasts.

Series [5] has as its system glyphosate-resistant Waterhemp plants (“WH13”). The series is described as follows: Sensitization of glyphosate-resistant Waterhemp WH13 to glyphosate, 2-16 nmol trigger (Example 5, FIG. 3). It is filed as in vivo. The note with it: 2, 4, 8 or 16 nmol trigger, glyphosate 1.5 lb/ac one day after, plants at 14 days after treatment. The protocol: The efficacies of mid-sized bioactive polynucleotide trigger molecules
Double stranded RNA (dsRNA) triggers comprising polynucleotide sequences of SEQ ID NOs: 3 and 4, SEQ ID NOs: 5 and 6, and SEQ ID NOs: 7 and 8 were produced and the bioactive trigger polynucleotides were formulated with 0.5% SILWET® L-77, 2% AMS, and 20 mM phosphate buffer to a concentration of 2 nmol, 4 nmol, 8 nmol or 16 nmol. The trigger formulations were then topically applied to the leaves of glyphosate-resistant Waterhemp plants (“WH13”). Control plants were either untreated or treated with the 0.5% SILWET® L-77, 2% AMS, and 20 mM phosphate buffer solution. One day after treatment, WEATHERMAX® brand glyphosate herbicide (RU Wmax, Monsanto, St Louis, Mo.) was applied to the plants at 1.5 lb/ac. Four replications were performed per treatment.

For series [6] the test system is unchanged. The series is described as follows: Tiling of EPSPS cDNA: dsRNA trigger testing with glyphosate, fresh weight (Example 7, FIG. 4). Format: in vivo. The note with it: 8 nmol trigger, glyphosate 1.5 lb/ac one day after, 14 days after treatment, three replications. The protocol:
The EPSPS cDNA of SEQ ID NO: 1 was tiled across the entire length of the cDNA to identify target sequences for bioactive trigger polynucleotides covering as shown in Table 5. The target nucleotide sequence were chosen to be approximately 47-62 bp in length. Bioactive trigger polynucleotides comprising a nucleotide sequence having at least 85% identity or complementarity to SEQ ID NOs: 36-66 were tested for the ability to sensitize glyphosate-resistant Waterhemp to glyphosate.
Double stranded RNA (dsRNA) triggers comprising polynucleotide sequences corresponding to SEQ ID NOs: 36-62 were produced and the bioactive trigger polynucleotides were formulated with 0.5% SILWET® L-77, 2% AMS, and 20 mM phosphate buffer to a final concentration of 8 nmol. The trigger formulations were then topically applied to the leaves of glyphosate-resistant Waterhemp plants (“WH13”). Control plants were either untreated or treated with the formulation 0.5% SILWET® L-77, 2% AMS, and 20 mM phosphate “buffer” solution. Additionally dsRNA comprising SEQ ID NOs: 7 and 8 (24-mer EPSPS trigger) was applied as a control. One day after treatment, WEATHERMAX® brand glyphosate herbicide (RU Wmax, Monsanto, St Louis, Mo.) was applied to the plants at 1.5 lb/ac.
Three replications were performed per treatment.

Take “SEQ ID NO 7/8: dsRNA 24mer EPSPS Trigger (SEQ ID NO 7) and Reverse Complement (SEQ ID NO 8), known to sensitize glyphosate-resistant weeds; control (sense AUGCCAGAUGUUGCUAUGACUCUU; antisense AAGAGUCAUAGCAACAUCUGGCAU; listed as RNA, chemistry not given here) [reference compound]”: the “visual 11-DAT Average (percent growth reduction relative to untreated control plants by visual score)” value in series [1] (2 nmole trigger) came to 47.5%; in series [1] (4 nmole trigger), 88.8%; in series [1] (8 nmole trigger) it was 90.0%; in series [1] (16 nmole trigger), 85.8%. Also, the “Fresh weight 14-DAT Average” value was found to be 19.0 in series [1] (2 nmole trigger), 95.3 in series [1] (4 nmole trigger), 91.8 in series [1] (8 nmole trigger) and 93.7 in series [1] (16 nmole trigger). Besides, the “% Control Fresh wt. average” value in series [2] worked out at 85%. For the same molecule, in series [3], the “sensitization of glyphosate-resistant Palmer amaranth to glyphosate, prior knowledge (in words)” value is “known to sensitize glyphosate-resistant Palmer amaranth to glyphosate”. The “sensitization of glyphosate-resistant Waterhemp to glyphosate, prior knowledge (in words)” value in series [4] is reported as “known to sensitize glyphosate-resistant Waterhemp to glyphosate”.

B1: SEQ ID NO 5/6: dsRNA trigger: 53mer EPSPS Trigger (SEQ ID NO 5) and Reverse Complement (SEQ ID NO 6), positions 1189-1241 of Amaranthus palmeri EPSPS cDNA (nucleic acid)
sense: GACGUCAACAUGAACAAAAUGCCAGAUGUUGCUAUGACUCUUGCAGUUGUUGC
antisense: GCAACAACUGCAAGAGUCAUAGCAACAUCUGGCAUUUUGUUCAUGUUGACGUC
modifications: double-stranded RNA trigger, further chemistry not given here
As to B1, the “visual 11-DAT Average (percent growth reduction relative to untreated control plants by visual score)” value in series [1] (2 nmole trigger) worked out at 48.8%; in series [1] (4 nmole trigger), 41.3%; in series [1] (8 nmole trigger) it was 93.8%; in series [1] (16 nmole trigger), 81.3%. Besides, the “Fresh weight 14-DAT Average” value in series [1] (2 nmole trigger) is on record as 18.2; in series [1] (4 nmole trigger), 94.0; in series [1] (8 nmole trigger), 96.2; in series [1] (16 nmole trigger), 90.7. Moreover, in series [2], the “% Control Fresh wt. average” value was found to be 83%. Moreover, the “EPSPS mRNA reduction vs. control” value in the series on EPSPS mRNA turned out to be 84%. In addition, the “sensitization of glyphosate-resistant Waterhemp plants to glyphosate (in words)” value in series [5] was “sensitize glyphosate-resistant Waterhemp plants to glyphosate”. In addition, in series [6], the “efficacy in sensitizing glyphosate-resistant Waterhemp to glyphosate (in words, from fresh weight)” value was “good efficacy”.

B2: SEQ ID NO 3/4: dsRNA trigger: 50mer EPSPS Trigger (SEQ ID NO 3) and Reverse Complement (SEQ ID NO 4), positions 398-447 of Amaranthus palmeri EPSPS cDNA (nucleic acid)
sense: GAACUCUUGGUUUAAAAGUGGAGGAUGAUAGUACAGCCAAAAGGGCAGUC
antisense: GACUGCCCUUUUGGCUGUACUAUCAUCCUCCACUUUUAAACCAAGAGUUC
modifications: double-stranded RNA trigger, further chemistry not given here
On to B2, for which the “visual 11-DAT Average (percent growth reduction relative to untreated control plants by visual score)” value turned out to be 46.3% in series [1] (2 nmole trigger), 28.8% in series [1] (4 nmole trigger), 88.3% in series [1] (8 nmole trigger) and 90.0% in series [1] (16 nmole trigger). Besides, the “Fresh weight 14-DAT Average” value in series [1] (2 nmole trigger) is listed as 24.0; in series [1] (4 nmole trigger) it was 94.7; in series [1] (8 nmole trigger) it was 88.4; in series [1] (16 nmole trigger), 97.0. The “% Control Fresh wt. average” value in series [2] was 78%. Further, the “EPSPS mRNA reduction vs. control” value in the series on EPSPS mRNA was found to be 69%. Moreover, the “sensitization of glyphosate-resistant Waterhemp plants to glyphosate (in words)” value in series [5] is recorded as “sensitize glyphosate-resistant Waterhemp plants to glyphosate”. Further, in series [6], the “efficacy in sensitizing glyphosate-resistant Waterhemp to glyphosate (in words, from fresh weight)” value is “good efficacy”.
